{
  "source": "patent US7563585B2",
  "about": "“Methods of assaying compounds that modulate IL-4 receptor-mediated IgE synthesis utilizing a thioredoxin-like 32 kDa protein (TXNL)” (Rigel Pharmaceuticals, Inc., priority 2002, dated 2009)",
  "key": {"[1]": {"system": "IL-4 induced germline ε transcription (ε promoter reporter in A5T4 cells)", "assay": "Re-infection assay in naïve A5T4 cells (BFP− vs BFP+ populations, FACS of GFP)", "type": "cell-based, human", "conditions": "A5T4 reporter line", "description": "The ability of peptide DR15wt (SEQ ID NO:1) to inhibit germline ε transcription was confirmed in naïve cells. Briefly, Phoenix cells were transfected with a retroviral vector encoding a BFP-DR15wt (SEQ ID NO:1) peptide fusion as described in WO 99/58663 and WO 97/27213. Naïve A5T4 cells were infected with the resultant virions and grown for 3 days. The infected cells were stimulated with IL-4 (60 U/mL) and, after 3 days, the cells were assessed by FACS for BFP and GFP. […] The BFP fluorescence data corresponding to the BFP^+ and BFP^− populations are provided in Panel A. The GFP fluorescence data corresponding to the BFP^+ and BFP^− populations are presented in Panel B. The reporter ratio for this purpose is determined as the geometric mean of the GFP fluorescence of the BFP^− population divided by the geometric mean of the GFP fluorescence of the BFP^+ population. The reporter ratio for the DR15 in this re-infection assay was 1.69.\nA collection of DR15 mutants was generated by replacing double amino acid residues in the sequence of DR15wt (SEQ ID NO:1) with a different amino acid, typically an alanine, as described in copending application Ser. No. 10/095,659. The functional profiles for the mutants derived from DR15wt (SEQ ID NO:1) was obtained by constructing and screening for activity in the A5T4 reporter cell line in the manner described above. […]"}, "[2]": {"target": "T1, human thioredoxin-like 32 kDa protein (hTXNL) (Homo sapiens, UniProt O43396)", "T1 construct": "expressed in transfected cells; prey cDNA from a library of the A5T4 reporter line (derived from BJAB B-cells)", "T1 sequence (O43396 1-289)": "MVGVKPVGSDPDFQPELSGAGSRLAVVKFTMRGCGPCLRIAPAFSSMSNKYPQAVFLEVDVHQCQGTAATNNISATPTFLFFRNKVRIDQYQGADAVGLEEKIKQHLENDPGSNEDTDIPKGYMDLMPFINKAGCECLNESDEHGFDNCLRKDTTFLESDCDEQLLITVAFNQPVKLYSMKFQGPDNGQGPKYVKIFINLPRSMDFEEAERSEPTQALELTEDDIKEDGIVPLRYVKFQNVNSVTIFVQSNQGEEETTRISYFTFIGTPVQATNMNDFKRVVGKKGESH", "assay": "β-galactosidase yeast two hybrid (YTH) interaction assay", "type": "binding", "description": "Potential binding partners for peptide DR15wt were identified in a β-galactosidase yeast two-hybrid (YTH) assay using peptide DR15wt as bait and a cDNA library constructed from the A5T4 reporter cell line as prey. Binding was assessed by β-galactosidase quantification using BetaFluor (Novagen) as a substrate. A negative interaction control (no cDNA fused downstream of the GAL4 activation domain sequence) was also run. A general outline of the YTH assay is illustrated in FIG. 5A. Following clustering, filtering to remove non-specific bait hits (e.g., GFP and BFP), singletons and clusters recognized by 10 or more cDNA baits (based upon historical YTH assays), and prioritization, 10 prey clones were identified as hits.\nPotential targets identified in the YTH assay were reconfirmed as generally outlined in FIG. 6. The cDNA clones identified as hits in the YTH assay were purified and rescreened for interaction with the DR15wt (SEQ ID NO:1) peptide in a YTH assay. The hit clones were also screened in a control assay for interaction with the BFP using a vector (pGBKT7) that contained only the BFP and not the DR15 peptide. At this stage, 8 putative target clones remained.\nThe interaction of DR15wt (SEQ ID NO:1) peptide and its mutants with the clones identified as potential targets for the peptide DR15wt (SEQ ID NO:1) was then quantified in a galactosidase YTH assay. The YTH assay was performed in the manner described above. A general outline of this YTH assay is illustrated in FIG. 5B. For each clone tested, an interaction profile was developed by comparing the β-galactosidase activity of each mutant to that of the wild type peptide as described above.\nThe interaction of these IOF and ROF mutants with different polypeptides encoded by the putative target clones were quantified using the YTH assay described above. Based on the YTH assay, for each putative target, a subset of the mutants representing each of the above functional categories, when available, were categorized into the following four interaction categories: (1) reduction of interaction (ROI); (2) loss of interaction (LOT); (3) increase of interaction (101); and (4) interactionally neutral (N), by assessing the binding affinity ratio of the mutant peptide and the wild type peptide (β-gal activity of mutant/wild type) to the putative target. For the YTH interaction assay mutants DR15PE (SEQ ID NO:2), DR15QI (SEQ ID NO:3), and DR15YM (SEQ ID NO:4) as well as originally identified DR15wt (SEQ ID NO:1), were used."}, "[3]": {"system": "endogenous α promoter (ST486 cells)", "assay": "TAQMAN assay of endogenous germline α promoter transcription in ST486 cells", "type": "cell-based", "conditions": "ST486 cells stimulated with TGF-β 40 ng/ml; average of 3 values; p=0.7797", "description": "The assay was similar to that described in the immediately preceding section, except that ST486 cells (ATCC # CRL-1647) engineered to express the tetracycline-regulated transactivator were infected and the infected cells were stimulated with TGF-β (40 ng/ml; Peprotech). The primers and probe, which are specific for the transcription product driven by the ST486 endogenous α promoter, were as follows (the probe was labeled at the 5′-end with Fam and at the 3′-end with Tamra): […]"}},
  "data": [
    {"sequence": "AARCYMRMPPQSLADAQIYS (Peptide generated by a combinatorial library) [DR15PE, dual alanine mutant of DR15wt]", "values": [
      {"measurement": "functional category based on reporter ratio compared to DR15wt", "setting": "[1]", "result": "IOF (An increase of function mutant (IOF) shows a >50% increase in reporter ratio)"},
      {"measurement": "binding to hTXNL in yeast two hybrid interaction assay", "setting": "[2]", "result": "found to bind"}
    ]},
    {"sequence": "PERCAARMPPQSLADAQIYS (peptide generated from combinatorial library) [DR15YM, dual alanine mutant of DR15wt]", "values": [
      {"measurement": "binding to hTXNL in yeast two hybrid interaction assay", "setting": "[2]", "result": "found to bind"}
    ]},
    {"sequence": "PERCYMRMPPQSLADAAAYS (peptide generated from combinatorial library) [DR15QI, dual alanine mutant of DR15wt]", "values": [
      {"measurement": "binding to hTXNL in yeast two hybrid interaction assay", "setting": "[2]", "result": "found to bind"}
    ]},
    {"sequence": "PERCYMRMPPQSLADAQIYS (peptide generated from a combinatorial library) [DR15wt, 20-mer peptide from a random retroviral library, expressed as BFP-peptide fusion]", "values": [
      {"measurement": "endogenous α inhibition ratio", "setting": "[3]", "result": 0.98},
      {"measurement": "binding to hTXNL in yeast two hybrid interaction assay", "setting": "[2]", "result": "found to bind"}
    ]}
  ]
}
